Article PMC11257959

Tested on: NG-RYBP (Homo sapiens)
Assay: EMSA
Settings: n=3; almost fourfold; EMSA: 25 mM Tris-HCl pH 7.5, 50 mM NaCl, 0.05% Tween 20, 5 mM MgCl2, 4% glycerol, 0.2 nM nucleosome, 10 min on ice, 1% agarose 0.4x TBE; cryo-EM binding: 50 mM …

Substance: Nuc (EMSA, 201 bp 601)
- binding signal (fold lower affinity than NucH2Aub1): 4
